Measured values from IntAct's records for PubMed 25265331.

B1: Replication restart protein DnaT (Escherichia coli (strain K12)), P0A8J2 (parent)
chain: MSSRVLTPDVVGIDALVHDHQTVLAKAEGGVVAVFANNAPAFYAVTPARLAELLALEEKLARPGSDVALDDQLYQEPQAAPVAVPMGKFAMYPDWQPDADFIRLAALWGVALREPVTTEELASFIAYWQAEGKVFHHVQWQQKLARSLQIGRASNGGLPKRDVNTVSEPDSQIPPGFRG
partner: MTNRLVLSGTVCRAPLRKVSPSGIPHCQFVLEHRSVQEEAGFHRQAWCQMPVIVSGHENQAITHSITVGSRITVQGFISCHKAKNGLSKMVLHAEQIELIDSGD

Variants of: B1
Details: with prib_ecoli priB

Variant | effect of a mutation on the interaction
MSSRVLTPDVVGIDALVHDHQTVLAKAEGGVVAVFANNAPAFYAVTPARLAELLALEEKLARPGSDVALADQLYQEPQAAPVAVPMGKFAMYPDWQPDADFIRLAALWGVALREPVTTEELASFIAYWQAEGKVFHHVQWQQKLARSLQIGRASNGGLPKRDVNTVSEPDSQIPPGFRG [D70A] | disrupting interaction
